The source of these data is patent publication EP1736482A1.

As usually defined, the Kd is the constant that tells how readily two partners part at equilibrium. In general, koff refers to the rate constant with which the complex falls apart. As a reminder, the kon is the second-order rate constant of association.

The target of assay [1] is recombinant human 4-1BB-Fc chimera (R&D Systems) (human) (UniProt Q07011). Nature of the assay: SPR (BIAcore 2000), 4-1BB-Fc coupled to CM5 chip, ligand in flow, 25°C. On the technique in general: SPR reads the build-up and loss of mass on a sensor chip optically.
Assay [2] concerns the target 4-1BB on CD3-stimulated human T lymphocytes (PBMC) (human) (UniProt Q07011). Nature of the assay: flow cytometry on CD3-stimulated PBMC, PE-conjugated antibody. Background: In flow cytometry, cells or beads pass a laser one at a time.
The target is the same in assay [3]. Nature of the assay: cell-based or functional assay.
Assay [4] shares this target. Briefly: flow cytometry on CD3-stimulated PBMC, ligand at 10 µg/ml revealed by PE-conjugated streptavidine.

Sequence of recombinant human 4-1BB-Fc chimera (R&D Systems) (human) (Q07011 24-186, change not shown): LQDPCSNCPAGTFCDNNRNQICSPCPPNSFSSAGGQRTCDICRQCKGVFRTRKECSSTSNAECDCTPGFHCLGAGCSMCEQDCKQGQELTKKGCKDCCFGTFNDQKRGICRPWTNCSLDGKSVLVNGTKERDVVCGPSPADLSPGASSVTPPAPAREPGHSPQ
Sequence of 4-1BB on CD3-stimulated human T lymphocytes (PBMC) (human) (Q07011 24-255): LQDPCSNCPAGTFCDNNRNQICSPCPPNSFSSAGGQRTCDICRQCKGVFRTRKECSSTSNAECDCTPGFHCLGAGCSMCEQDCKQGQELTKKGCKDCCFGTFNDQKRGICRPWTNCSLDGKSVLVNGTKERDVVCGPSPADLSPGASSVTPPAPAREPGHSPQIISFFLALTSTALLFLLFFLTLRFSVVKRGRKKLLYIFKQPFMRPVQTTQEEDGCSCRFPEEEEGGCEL

With “C51S AviTag-4-1BBL (from UniProt P41273 50-254) (ligand)”, in assay [1], the equilibrium dissociation constant (Kd) amounted to 2.3 nM, the off-rate constant (koff) came to 0.00052 s⁻¹ and the kon is 230000 M⁻¹ s⁻¹.
Turning to “PE-conjugated anti 4-1BB mAb (clone 4B4-1, BD Biosciences) (antibody)”, the percentage of 4-1BB positive activated T cells stained in assay [2] was 64%.
“WT AviTag-4-1BBL (trimeric recombinant human 4-1BBL extracellular domain with N-terminal AviTag, produced in E. coli and refolded) (from UniProt P41273 50-254) (ligand)”: the inhibition of the proliferation of CD3-stimulated PBMC (tritiated thymidine incorporation) in assay [3] was 70%. The same substance had a percentage of 4-1BB positive activated T cells stained in assay [4] of 60%.
